The target of test [1] is recombinant homotrimeric HA, A/Hong Kong/1073/99 H9N2 (Influenza A virus A/Hong Kong/1073/99 (H9N2)). The test is described as follows: trimeric HA microarray, transfection set 1.
For test [2], the target named is recombinant homotrimeric HA, A/duck/Yangzhou/02/05 H8N4 (Influenza A virus A/duck/Yangzhou/02/2005 (H8N4)). The test is described as follows: trimeric HA microarray, transfection set 1.
Test [3] has as its target recombinant homotrimeric HA, A/Anhui/1/05 H5N1 (Influenza A virus A/Anhui/1/05 (H5N1)). The test is described as follows: trimeric HA microarray, transfection set 3.
Test [4] concerns the target recombinant homotrimeric HA, A/California/4/09 H1N1 (Influenza A virus A/California/4/09 (H1N1)). The test is described as follows: trimeric HA microarray, transfection set 3.
The target in test [5] is recombinant homotrimeric HA, A/Egypt/3300-NAMRU3/08 H5N1 (Influenza A virus A/Egypt/3300-NAMRU3/08 (H5N1)). The test is described as follows: trimeric HA microarray, transfection set 3.
Test [6] has as its target recombinant homotrimeric HA, A/Hong Kong/1073/99 H9N2 (Influenza A virus A/Hong Kong/1073/99 (H9N2)). The test is described as follows: trimeric HA microarray, transfection set 3.
For test [7], the target named is recombinant homotrimeric HA, A/Hong Kong/2108/03 H9N2 (Influenza A virus A/Hong Kong/2108/03 (H9N2)). The test is described as follows: trimeric HA microarray, transfection set 3.
For test [8], the target named is recombinant homotrimeric HA, A/Indonesia/5/05 H5N1 (Influenza A virus A/Indonesia/5/05 (H5N1)). The test is described as follows: trimeric HA microarray, transfection set 3.
Test [9] has as its target recombinant homotrimeric HA, A/Japan/305/57 H2N2 (Influenza A virus A/Japan/305/57 (H2N2)). Nature of the test: trimeric HA microarray, transfection set 3.
Test [10] concerns the target recombinant homotrimeric HA, A/Netherlands/219/03 H7N7 (Influenza A virus A/Netherlands/219/03 (H7N7)). The test is described as follows: trimeric HA microarray, transfection set 3.
Test [11] has as its target recombinant homotrimeric HA, A/Solomon Islands/3/06 H1N1 (Influenza A virus A/Solomon Islands/3/06 (H1N1)). Nature of the test: trimeric HA microarray, transfection set 3.
Test [12] addresses recombinant homotrimeric HA, A/South Carolina/1/18 H1N1 (Influenza A virus A/South Carolina/1/18 (H1N1)). The test is described as follows: trimeric HA microarray, transfection set 3.
Test [13] has as its target recombinant homotrimeric HA, A/Vietnam/1203/04 H5N1 (Influenza A virus A/Vietnam/1203/04 (H5N1)). Nature of the test: trimeric HA microarray, transfection set 3.
Test [14] concerns the target recombinant homotrimeric HA, A/Wisconsin/67/05 H3N2 (Influenza A virus A/Wisconsin/67/05 (H3N2)). Nature of the test: trimeric HA microarray, transfection set 3.
Test [15] concerns the target recombinant homotrimeric HA, A/chicken/Vietnam/NCVD-016/08 H5N1 (Influenza A virus A/chicken/Vietnam/NCVD-016/08 (H5N1)). Nature of the test: trimeric HA microarray, transfection set 3.
Test [16] addresses recombinant homotrimeric HA, A/common magpie/Hong Kong/5052/07 H5N1 (Influenza A virus A/common magpie/Hong Kong/5052/07 (H5N1)). Nature of the test: trimeric HA microarray, transfection set 3.
Test [17] deals with recombinant homotrimeric HA, A/duck/Yangzhou/02/05 H8N4 (Influenza A virus A/duck/Yangzhou/02/2005 (H8N4)). Nature of the test: trimeric HA microarray, transfection set 3.
The target of test [18] is recombinant homotrimeric HA, A/northern shoveler/California/HKWF115/07 (Influenza A virus A/northern shoveler/California/HKWF115/2007 (H6N1)). The test is described as follows: trimeric HA microarray, transfection set 3.
Test [19] addresses recombinant homotrimeric HA, A/swine/Ontario/01911-2/99 H4N6 (Influenza A virus A/swine/Ontario/01911-2/99 (H4N6)). The test is described as follows: trimeric HA microarray, transfection set 3.
Test [20] concerns the target hemagglutinin (HA) of influenza A/Solomon Islands/3/06 H1N1 (Influenza A virus A/Solomon Islands/3/2006 (H1N1)). Nature of the test: ELISA, inactivated whole virions coated; transfection supernatant set 2. A general note: An ELISA detects its analyte on a solid surface through an enzyme-linked reagent.
In test [21] the target is hemagglutinin (HA) of influenza A/Wisconsin/67/05 H3N2 (Influenza A virus A/Wisconsin/67/2005 (H3N2)). Described as above.
Test [22] addresses hemagglutinin (HA) of influenza A/Japan/305/57 H2N2 (Influenza A virus A/Japan/305/1957 (H2N2)) (UniProt P03451). Nature of the test: ELISA, inactivated whole virions coated; transfection supernatant set 4.
Test [23] deals with hemagglutinin (HA) of influenza A/Solomon Islands/3/06 H1N1 (Influenza A virus A/Solomon Islands/3/2006 (H1N1)). Described as above.
Test [24] deals with hemagglutinin (HA) of influenza A/Wisconsin/67/05 H3N2 (Influenza A virus A/Wisconsin/67/2005 (H3N2)). The test is described as above.

As for TCN-202 (2N9) (antibody), the Trimeric HA Binding RLU in test [1] is 21 RLU; in test [2] it was 26 RLU; in test [3], 33 RLU; in [4] it was 205 RLU; in test [5], 63 RLU; in test [6], 57 RLU. Moreover, the Trimeric HA Binding RLU in test [7] was 30 RLU; in [8], 43 RLU; in test [9], 42 RLU; in [10], 247 RLU; in test [11], 57 RLU; in test [12] it was 731 RLU. Further, the Trimeric HA Binding RLU in test [13] came out at 967 RLU; in test [14], 51 RLU; in test [15], 14 RLU; in test [16], 16 RLU; in test [17], 66 RLU; in [18], 73 RLU. Also, the Trimeric HA Binding RLU in test [19] was 54 RLU. The OD450 in [20] came to 0.08 OD450; in [21] it was 0.07 OD450; in test [22], 0.08 OD450; in test [23], 0.1 OD450; in [24] it was 0.07 OD450.

Values taken from patent publication US20120207760A1.
